According to the DeepSol protein solubility set:

Test: soluble on expression in E. coli; label from the status in PepcDB or PDB records
With “GPGSMDTIEFLHTVGKLKETMRTGWVETGVHQPESVSDHMYRAALLCMMCPDSSLNRDRLVRMALCHDVGESIIGDISPKMGVPAAEKHKREKEAILHLRGLLPHDSPLEKELQELWEEYETQGTPEARFLRDIDLLEMVTQAHAYEKTHPELNFDSFYVSGEKIKHPWVRSIYDNLVSTRPSRKS” the “soluble on expression in E. coli” value was “soluble”. For “GPGSMDVARTMRATAGGKAFAVVAAEQTAGRGTGGRTWTSPKGNLYMTVGVPQLGQPPCLKEELVPVLPLICGLACRRAVLEVLHLDGALAKASVAADAAKAVATKWPNDIIYNHKKIGGTLIESDGDYLIIGIGMNIAVAPQMTDAGREATMINTIAEDFGVKSCPPRDLANAIWCHLFDICSSPEWTRELVIESFDKVMDKSLKLHKRLPGGRDPEELTAVSLNSWGHLKVRHADGTVEDLSAEYLF”, the “soluble on expression in E. coli” value was “not soluble”. In the case of “GPGSMESQKRMMWNLKGRSAVAALDPSTRHRIMQSHAMASSFHKPLLATLEVLITPQYVGGLTGPLQKPEPFICHVTRLLQITPDPSIVLAMLHQDVHKYLRVAALFIIRLIGNEAMMREAMRVGWEDYRKIRVYGYVEDLAGTIDSKENNAPDEEEGFVRAPAYGIMCVDEITDRLFNVGESDINKNGGSGNLWLGLRLPPILL”, the “soluble on expression in E. coli” value was “not soluble”. With “GPGSMFHRTTPEEEVRKWTRSLRSEQRKIELQITKIRREEAKVKLSMKQAAKQNDQVVMRMLAKEMIRSRKAVNRMYASKAQMNSVSMQLQNQASQMKMSGSLKKSGEIMKEMNSLVKVKEVQQSMMAMSKEMVKAGLIDEIMNDTIDEALDDDISDTELEDEVNKVVMDVVQGQMDGARVGASRIPAQQQQQQETAEEEEDELMEKLNALRNS” the “soluble on expression in E. coli” value was “soluble”. In the case of “GPGSMFYKIVLQRTVNVKPADLCNTLNRSLLTFLREAVEGKPLPSPDSIASIALDYVTASKSSAVVIAVLDILNAETLQGKVLDDGSVSFRLTYEAMVLKLHRGEVLDLLVSDVDETGFWASVYGVNKLFVNRNQMGEDMKTGKSEWSFEAETAAWVSNDDRRSIKKDTMVRLRVIAETPQSERGMAVGTIGAPFLGPRVGSY”, the “soluble on expression in E. coli” value was “not soluble”. In the case of “GPGSMGAVKFQLYKTLGVPMKSSIKDITRAYRHLALKYHPDRNPEGVEKFKSISNAYAVLSDPERRAAYDLTGFLSDSADSSHAMSDEAARQQRSAELADQVRTFFATYAGSAEERLDVVRGYEKCRGDFKKMVREYLLFDNGVEAEVQRLHRLVSTLIELGNLSPTPAWKSTSTPEALLRLEKAMHRERQEAENVLKDMAGSGTGAAGAADGDLSSLQVMIRQRQQSSYESMLNHLESKYVTKKSNARESSKRTREAAPTARKDECASKKHRKASHHR”, the “soluble on expression in E. coli” value was “soluble”. In the case of “GPGSMGVALTHGLQRQRQQRTAAGHRSANRRGKRGLPPSLLGRLCMFVFVWMHLAEERERRECRLQGKKVFLEESSAGSSRSCMRRRHVCGVRACAGRRGCFASSVISLRCWTSSQSAVVAALTRLRVSSFSAPHLFRLARSAAPTREAASTKYFIDSLAAHSSRLIGVRAPLAHTHVHLGDCIDSTTSACVCGEEIHHHRAQPGVTVSLCTPFSLSHTPSTAWAPLLPADKHHMQASPVLAGAAVRRTATASVGSEPRTNLPFLINVVKKAQKSANTVVASTPALSSMSSTKEPPIQAAAFKPYPLLSPGEVKQAAGSSLLYKDDVCVLVNDAFPKSMVHCLVMPLDLRLQSLNALTKKDAPLLRHMLHVGDEYVRYLKTAVPHTYTARRFIAGFHALPSLPMLHMHVLSTDLDSPCLKNKKHYNSFATFFFLTGDRVLDDLERHGRVTLNQDVTRLRQMEEQDMKCLWCGTALPSVPAMKSHIQCCPQNKAVEKSS”, the “soluble on expression in E. coli” value was “not soluble”. With “GPGSMGYRLLRDNVFKASCAKDSDELRARREPTMLYKEDQLVAPASGTERRYTLVLDLDETVIYAREGPLYARAYLKELLSFIRKNFEVIVWTAGEREYAECILEEINIRNTVRHLIHRHKTWFSFDDYTKDLTKLGRNLDYVIIIENSPDCVRTNPQNGIIVDDFRVSQTPPMEEAEAAWEGDGNNRERKAGSRSDSKTRRQVTDRTLLLLREVLKAMVESGETVPDFLAKCPLLTQRRVIGSDGSQIQTYHLGTRRKRGIPQLCASSPKRRRVTKESAPGATCTS” the “soluble on expression in E. coli” value was “soluble”. In the case of “GPGSMHTKVLAPLAGNRIQAAHKFPQVRLQPTLHRLMTRRRQCNLPLRLFHPSSVDFAKHELEAGRIVEVRRDDNSLVALGFYEPHLERVDVFDMTANLAAMLPAISEDFFMARVHEAWERRRRILPQTQSNTYRVVNGYADSLPSLFVDVFSESFVRVVATSFGAERLVTPLLDFLSRRGAEDVLLDTPTLGDAARVSIVTPTISLPQMYVESGVSHLWLRPDMRMPSTDNLFLINPAHRRTRRMMRDVGKGKRVLTIYDRSGSAAMNAVMTAKHVTVVHREETSLEWARTNLICNHSASVFKTCETVCCDPAELRVRHQQDVVYVECHPKFLSTSNQWAELVRSLANNKVIGVGTMLIVAQEEAPLGVHDLLPRRKVFYEGDESKANQDCPMKRRPLADVLRNALEKCHLRLKFLRAFSVACDHPLLPEAESASFSLVYLVEGPALEQVFRVSASSHRTECTDEAA”, the “soluble on expression in E. coli” value was “not soluble”. In the case of “GPGSMIFGSEPPLYLKPVGRRGLRRHEADVLQHYPGYSHPVVQLRGSEGYIGDSHRLHPRLTAAEELRHERELGAERRQRVVEVRRRRHCEREANLAQRREDEFQREQRHKAQLAGLCIRNEPGDGRDTITQQYRTEDARRHYEYKHELEKHRYFARQQRLREKTHPHGYNILTGEALPSTVVPPKPSIPSDTQLFAVQNGD”, the “soluble on expression in E. coli” value was “not soluble”. With “GPGSMIYSGEIENGQMHGRGCLQYPNKEKYDGDWVFGKRHGTGVYVYADGSRYEGEWVDDKVHGNGACYYTSGNVYTGEWSMGRINGRGVLEYHDGDRYEGEWKDGRMHGKGTYCYSNGDKYEGEWKEDKRHGKGVVVYAAPDGCVSEKYDGEWNEGRMQGWGKYFYADGGVYEGEWVDGRMHGRGTYVFPNGNKYEGEWVEDRKDGYGILLYTNGERYEGYWHLDKAHGKGTLTFLQGDRYVGEWHYGKKHGHGVLSYSNGDTYDGEWRDDDAWGYGVLQYANGCRYEGEWAEDRRHGKGLLVLPDGSSYEGSFAHGKKDGPGKIILKDGSMYIGTWKDGVIVGQGEFRLSENCDLSNPDY” the “soluble on expression in E. coli” value was “soluble”. In the case of “GPGSMKKTVEDRSLEFLIRRRNDAELPPLASLSCKHLKQHHWRDAFDDEQAALREQLWAVKTQLDVIPAETYTATRNKLFPLAASGEQRNFSNRAGHKLLESMESTGVWMELSKLLRGKSTKRPRDFAFADVCGGPGAFSQALFQAGRKRGWRHLHGYGMTLAGVSGLDWYAHLLKSPQFTCTYGLDGTGDIFKLSNIDCLASITKAAPMFLVVADGGFNVDFSVTNYQETISSRIMYGQWLAALKLLRKGGCFVLKLFDTFSPLSRAVLYLSCCMYRRVHVAKPRHSRVVNSERYLVCVDFLGYPSEGWSRYLDSFYEVGFVDNEHVPQLIPREWCLQDAVFMADVRDMNTAVATNQVIALQMILDAAPAMTEELKAKTIEKKPAAGSDDGRTPPPDEGGDGE”, the “soluble on expression in E. coli” value was “not soluble”. With “GPGSMLEEVLKCYEEMKDPAAHQLAEAALPKLMEALGEESENSVMEVMLRCIGRCVSVHPAIMSPTNTALVCDKVMAALEVVVKRRNECLQKKATENDEDELDALEVEDEEVHLTISSMCDLIGTLLAASKEVFAAPFLEKAFPVLGEWLQASTDDFYMTRAAGILSDFVTHAPQSIVPSLPQICASSLTIASSSSDDGLLQSDFYLMNVIVQLLGSHATTNMGVDGGEYAVHVQQVAEKYFSSNLVNQEEYTHCTCNVISLYVSLLNFYGTTVLQQAATSMLTVVGKALPAKDDEIEARRIHDVVLGWVTNNHPVLQALPGSTAGFLTCVKAASPNCLSEQAKQYLASM” the “soluble on expression in E. coli” value was “soluble”. In the case of “GPGSMLKCSLCYLASKVTAGNAKNQAGHPRRRAKLFHVVPGTPVTPFEKLKEQRRRFGQDRHSRLPEYRPGNNVRMDPNTYTLYATKKGVMTIRESRINPKYKWLDVEPDIQKVYRSRELRRALQEREMASMAVGENSNYRVELDLLLEPDWRERVMHVPKATERFKDPNLFTRGVVNELSPLDRYSYT”, the “soluble on expression in E. coli” value was “not soluble”. In the case of “GPGSMLPQLLTENLCSLVEAEDRYAFSILWEFDENLNVVRDWFGKTIIRSRGALYYGDAQRMIDNPADTSDIAVSLRELMRLSKHFKAQREEDGALFLASQEFKFKVDNEHVNPTDMQVYQTFEANSMIEEWMLYANAAVATKVYESYPQWTLLRRHEPPAEGAFDTLNDALYSKLRVRLDDTTSLTLNKSLDKCEDPQDPYFNKLIRILTTRCLRQAQYFSSGG”, the “soluble on expression in E. coli” value was “not soluble”. For “GPGSMLPTVPCFGSQWCIESVMDLSGLVPTSKELTEGQREHIRDLQYEIDEIWNRRGDYKIDSSAWEQMPLFMENITEEDLQRNADCAALASIAYDDVPPEEVAESRKQHGNRAIQLALDPKQVNKENLARATVHCYTEGLAAKCKDPVLNSQLYANRSLAQYIIHNYGHGLEDAQRAIILDPDYYKAYYRAARCAERIGKYDLALDLLAKGRRTNPAPVGRALEDFVDIERVCREGKERAESKKKKENLSTRVKAAQTSSTLRCVTSSGVRCSPRAEVSSEQMGVYGHHEPYFDSEGLLHVPILFMYDEYQQTDFMQDVSCDVCVGELLDELMPFPWDDRGRYQRIDDILVVYKIDGGVKDPKYYEVDLSLPLMEVFRSESYQMPALLPVLHIICKHSDMLTEWDVQMLR”, the “soluble on expression in E. coli” value was “soluble”. For “GPGSMLQSLVNSIVFVPPRDPNSLQRVQLLQRKRHMSFTSKKSGERISYFHFDPKGDLVTKDNPERVVRSSMVLLFHHGNAEDLGSAFSYAQSMACVFGVAVVVYDYCGYGFSGFPDAAKPAEVTEKSVYSDADHMYAHLLSLGYPAHRIIIVGRSVGGGPACYLAEKHHKKVGGLVLISTFTSCLRVVSSCCLPYLCCCVDLFPNYRRIEHIMECPVLVMHGTHDNVVPHHCSSELLEDIVARRNNALQRLLKKREGARANQAKRSSVLGAASTGPTNTTTASATIIVADEALVTAQPPLDGETVSVFDLYRRAYDGLPEAVRRVAEGRLDVTAADASIGVFHRWFAGCGHNDIEAREGHAFSDMFDYFVRFSTAFSMEREALLLAKPVTGAAKASRDSLNRADSEVRE”, the “soluble on expression in E. coli” value was “not soluble”. For “GPGSMLRRTLYALTRPRDSAAASRDKAHFDVCVIGGGPAGIAAALRAADYNKRVCVVEKARLGGNDLWDGALQSKTMWECSAIMAKMRGDAAMRLYGESLDRYLEIDEVKMRQSMEQVSRIREEQIQAALKASPNVELVLGRATFSSNHEIQCHSKRTKEFRSITADYFIVATGSKPRKHPYVAADGRLVMTSDHIMRAPLPKSLVIVGAGVIGCEFASIIGRLGKTKVSIIDKAPHILPREDPDIVRMIESGMDRAGIVVHHNSDLYDMQPWEETVEEAKARHPADPAPQSGVQYTVMDRTTRKLTTFQVERALISIGRVPDYSRLGIENTTLKTRGSQLHVNEFGQCVGTPHIFAVGDAATHMQLVSMGEAQAKLAVDYIYGTEPKVVPNLTETMSSVAFLTRAVASVGYNESQCREKGIAYIAARYSYEVVSRAVAAANTKGFVKIICADDPERRILGVRALGMNASTLVDIGALAIQNGQGVFDLAGRLTAYPAVSQAFQECLRSILDLSAQLHADPARGVKLTKWTPPDMSRGVAYKGKATAPGESSPRQSGWVIH”, the “soluble on expression in E. coli” value was “not soluble”. With “GPGSMLVPGYGSHLLRFGSTWVYITRAEDPSKQKAAAANRVDRENDKLTLTFFTRRRAVVQQFMKHVQESWRANVRNTVHIYLSEGYGPRWHLLSERIRRPLSTLYLPADTKAVVEEARLFLRLKDTYAALGIPWRRGYLLEGPPGTGKTSFVMALAGELGLPVHILSLRSANMDDDALLSLTSSLPRRSILLIEDLENVLKTPPGAGRSALSSGASDTAAVAAAETSAASPASPYSTDIGGGPRSAMSLSALLNALDGVSSSEGRLLLITTNDTSRIPFAEVLLRPGRVDRRIRFQPLHVEQLREMEASFQQALQASPCSAVENPRLPSARPSAHEDDRSVACTPAQYQQRLLDAVYASLTSRPRAESK” the “soluble on expression in E. coli” value was “not soluble”.
